Assay results as given in PMC2728148.
Where two headings read alike, the source gives them in different places.

B1: 34G/34C (dsDNA)
DNA 1: GTACCCGGGGATCCGTACGGCGCATCAGCTGCAG
DNA 2: CTGCAGCTGATGCGCCGTACGGATCCCCGGGTAC
B2: DNA50/DNA49 fork (dsDNA)
DNA 1: GGGACGCGTCGGCCTGGCACGTCGGCCGCTGCGGCCAGGCACCCGATGGC
DNA 2: TTTGTTTGTTTGTTTGTTTGTTTGCCGACGTGCCAGGCCGACGCGTCCC
B3: RNA50/RNA49 fork (dsRNA)
RNA 1: GGGACGCGUCGGCCUGGCACGUCGGCCGCUGCGGCCAGGCACCCGAUGGC
RNA 2: UUUGUUUGUUUGUUUGUUUGUUUGCCGACGUGCCAGGCCGACGCGUCCC
B4: DNA50/RNA49 fork (DNA:RNA)
DNA: GGGACGCGTCGGCCTGGCACGTCGGCCGCTGCGGCCAGGCACCCGATGGC
RNA: UUUGUUUGUUUGUUUGUUUGUUUGCCGACGUGCCAGGCCGACGCGUCCC

Legend:
Assay in all cases: EMSA
CSB wild-type [1] = target: T1, CSB wild-type (Homo sapiens, UniProt Q03468 1-1493)
CSB wild-type [2] = target: T1, CSB wild-type; remark: listed apart in the source
CSB wild-type [3] = target: T1, CSB wild-type; remark: listed apart in the source
CSB wild-type [4] = target: T1, CSB wild-type; remark: listed apart in the source

T1 sequence (Q03468 whole entry): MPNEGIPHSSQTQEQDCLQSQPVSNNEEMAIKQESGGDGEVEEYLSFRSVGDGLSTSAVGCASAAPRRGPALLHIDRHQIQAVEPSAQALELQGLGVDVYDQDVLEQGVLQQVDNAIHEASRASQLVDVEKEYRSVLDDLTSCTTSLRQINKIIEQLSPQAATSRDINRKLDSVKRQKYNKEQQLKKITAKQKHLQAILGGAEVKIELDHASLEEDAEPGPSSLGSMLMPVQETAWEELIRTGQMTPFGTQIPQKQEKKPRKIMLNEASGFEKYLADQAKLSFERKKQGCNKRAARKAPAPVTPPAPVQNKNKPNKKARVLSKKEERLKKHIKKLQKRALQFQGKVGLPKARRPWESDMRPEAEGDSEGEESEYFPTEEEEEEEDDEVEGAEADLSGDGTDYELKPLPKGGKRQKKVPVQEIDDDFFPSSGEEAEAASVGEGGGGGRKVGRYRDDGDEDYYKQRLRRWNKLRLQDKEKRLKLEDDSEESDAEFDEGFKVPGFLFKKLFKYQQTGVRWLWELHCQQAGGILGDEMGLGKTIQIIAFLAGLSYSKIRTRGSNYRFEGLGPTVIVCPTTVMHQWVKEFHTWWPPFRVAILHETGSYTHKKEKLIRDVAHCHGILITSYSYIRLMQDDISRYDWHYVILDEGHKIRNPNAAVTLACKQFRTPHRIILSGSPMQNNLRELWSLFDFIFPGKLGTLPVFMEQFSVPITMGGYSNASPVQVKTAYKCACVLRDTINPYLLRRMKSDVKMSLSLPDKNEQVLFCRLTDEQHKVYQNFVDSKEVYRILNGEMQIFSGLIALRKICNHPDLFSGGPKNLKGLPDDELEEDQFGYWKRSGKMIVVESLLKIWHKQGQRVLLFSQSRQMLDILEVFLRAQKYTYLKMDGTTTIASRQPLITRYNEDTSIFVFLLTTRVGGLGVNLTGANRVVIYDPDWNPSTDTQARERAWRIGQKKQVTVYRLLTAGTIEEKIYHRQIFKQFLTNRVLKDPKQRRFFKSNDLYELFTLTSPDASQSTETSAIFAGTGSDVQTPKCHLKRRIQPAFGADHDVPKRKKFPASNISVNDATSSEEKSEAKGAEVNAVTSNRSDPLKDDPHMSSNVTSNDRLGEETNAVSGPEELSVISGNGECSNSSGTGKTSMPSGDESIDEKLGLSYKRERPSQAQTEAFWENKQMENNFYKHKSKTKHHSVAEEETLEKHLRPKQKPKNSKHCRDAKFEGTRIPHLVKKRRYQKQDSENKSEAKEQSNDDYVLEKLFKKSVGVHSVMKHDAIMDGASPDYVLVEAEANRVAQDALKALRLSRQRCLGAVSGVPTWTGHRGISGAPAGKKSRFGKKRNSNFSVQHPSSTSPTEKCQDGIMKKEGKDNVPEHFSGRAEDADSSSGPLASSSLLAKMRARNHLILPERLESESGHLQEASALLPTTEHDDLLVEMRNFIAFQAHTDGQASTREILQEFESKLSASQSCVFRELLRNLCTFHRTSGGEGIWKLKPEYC

Binder	Kd (CSB wild-type [1]) [nM]	Kd (CSB wild-type [2]) [nM]	Kd (CSB wild-type [3]) [nM]	Kd (CSB wild-type [4]) [nM]
B1	13.7 ± 1.1	20.5 ± 5.2	10.7 ± 0.6	
B2				5.9 ± 0.6
B3				3.6 ± 1.5
B4				13.4 ± 3.3
